Consider five molecules from article PMC3139367 (Journal of molecular biology, 2011).

The target in experiment [1] is p300/CBP KIX (UniProt Q92793). The settings on record: cited from earlier work.
Experiment [2] addresses T1, GST-KIX (aa 588-683, from mouse CBP) (mouse, UniProt P45481 588-683). Put plainly: native gel or EMSA.
In experiment [3] the target is T1, GST-KIX (aa 588-683, from mouse CBP). Put plainly: native gel or EMSA. This is another data set of the same source.
The target in experiment [4] is untagged KIX (aa 587-679, from mouse CBP) (mouse, UniProt P45481 587-679). Nature of the experiment: cross-linking.

Where a chain is given by its changes, count along the chain named. Read-outs that look alike come from different tables or passages of the source.

T1 sequence (P45481 588-683): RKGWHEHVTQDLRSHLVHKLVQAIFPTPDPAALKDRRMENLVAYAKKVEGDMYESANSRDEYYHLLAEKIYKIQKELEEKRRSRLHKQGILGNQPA
Sequence of p300/CBP KIX (Q92793 587-666): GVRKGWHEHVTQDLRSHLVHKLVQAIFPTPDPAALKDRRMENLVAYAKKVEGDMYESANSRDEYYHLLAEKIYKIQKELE
Sequence of untagged KIX (aa 587-679, from mouse CBP) (P45481 587-679): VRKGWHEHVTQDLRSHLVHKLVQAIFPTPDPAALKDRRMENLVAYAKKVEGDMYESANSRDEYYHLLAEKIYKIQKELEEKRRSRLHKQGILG

With CREB (from UniProt P16220), the Kd in experiment [1] was 108000 nM.

B1: Gal4-HBZ-AD wt (Gal4-DBD aa 1-147 fused to the N-terminus of HBZ-AD aa 1-77) (domain or fragment)
chain: MAASGLFRCLPVSCPEDLLVEELVDGLLSLEEELKDKEEEEAVLDGLLSLEEESRGRLRRGPPGEKAPPRGETHRDR
The molecule B1 yielded a Kd in experiment [2] of 3 ± 0.5 nM.

B2: Gal4-HBZ-Mut-AD1 (domain or fragment)
chain: B1 chain with L27A, L28A
The molecule B2 displayed a Kd in experiment [3] of 800 nM.

B3: HBZ-AD wt (aa 1-77, without the Gal4-DBD fusion) (domain or fragment)
chain: B1 chain
As for B3, the “stoichiometry N” value in experiment [4] came to 1.

B4: Gal4-HBZ-Mut-AD2 (domain or fragment)
chain: B1 chain with L47A, L48A
Take B4: the Kd in experiment [3] came out at 180 nM.
